In the nanobody polyreactivity screen of Harvey et al. (2022):

assay: yeast display, Sf9 membrane polyspecificity reagent, FACS + sequencing; frameworks hold sequencing errors
Summary of the method: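 Genes from sorted yeast were amplified by colony PCR, read by MiSeq 2 × 250 sequencing and filtered on CDR length. These cells carried a synthetic nanobody library in Saccharomyces cerevisiae BJ5465 and were sorted by FACS into low and high (top ~1%) gates on anti-HA and streptavidin fluorescence. Polyreactivity is labelled according to the gate of origin.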

Sequence | polyreactivity (PSR sort gate)
QVQLVESGGGLVQAGGSLRLSCAASGSTFYRNAMGWYRQAPGKERELVAAITSRGTRTFYADSVKGRFTISRDNAKNTVYLQMNSLKPEDTAVYYCAVTYQAEDEYDYWGQGTQVTVSS | low polyreactivity
QVQLVESGGGLVQAGGSLRLSCAASGSTFYRNAMGWYRQAPGKERELVATISTGGVSTYYADSVKGRFTISRDNAKNTVYLQMNSLKPEDTAVYYCAKRTVYLSNLDYWGQGTQVTLSS | low polyreactivity
QVQLVESGGGLVQAGGSLRLSCAASGSTFYRNAMGWYRQARGKERELVAAISRGGSTYYADSVKGRFTISRDNAKNTVYLQMNSLKPEDTAVYYCNTDVNYAGYGWYYYWGQGTQVTVSS | high polyreactivity
QVQLVESGGGLVQAGGSLRLSCAASGSTFYRNVMGWYRQAPGKERELVAAISASGGSTYYADSVKGRFTISRDNAKNTVYLQMNSLKPEVTAVYYCAVDNRQYRYLYYYWGQGSQVTVSS | high polyreactivity
QVQLVESGGGLVQAGGSLRLSCAASGSTFYRYALGWYRQAPGKEREFVAAISRSGGSTNYADSVKGRFTISRDNAKNTVYLQMNSMKPEDTAVYYCAAKYSDYQYGRYYYWGQGTQVTVSS | high polyreactivity
QVQLVESGGGLVQAGGSLRLSCAASGSTFYRYAMGWYRQAPGKERELVAAISKRGGSTYYADSVKGRFTISRDNAKNTVYLQMNSLKPEDTAVYYCNAVGYKGTTYDYWGQGTQVTVSS | high polyreactivity
QVQLVESGGGLVQAGGSLRLSCAASGSTFYRYAMGWYRQAPGKERELVARIDWSDGSTNYADSVKGRFTISRDNAKNTVYLQMNSLKPEDTAVYYCAADTYSDTYDGEYEYWGQGTQVTVSS | low polyreactivity
QVQLVESGGGLVQAGGSLRLSCAASGSTFYRYAMGWYRQAPGNERELVAVLRYTSGRTYYADSVKGRFTISRDNAKYTVYLQMNSLKREDTAVYYCATDPYGTRGTDSRYNYWGQGIQVTVSS | high polyreactivity
QVQLVESGGGLVQAGGSLRLSCAASGSTFYSNAMGCYRQAPGKEREFVAAITGGDVRTYYADSVKGRFTISRDNAKNTVYLPMNSLKPEDTAVYFCATGPYIWPEWSPGFDYWGQGTQVTVSS | low polyreactivity
QVQLVESGGGLVQAGGSLRLSCAASGSTFYSYAMGWYRPAPGKERELVAAITTSGGSTYYADSVKGRFTISRDNAKNTVYLQMNSLKPEDTAVYYCNAYFIYEGGWYYKAQYDYWGQGTQVTVSS | low polyreactivity
QVQLVESGGGLVQAGGSLRLSCAASGSTFYSYAMGWYRQAPGKEREFVAVISWSGGRTRYADSVKGRFTISRDNAKNTVYLQMKSVKPEDTAVYYCNARKWGYSPHRKGDRHFEYWGQGTQVTVSS | low polyreactivity
QVQLVESGGGLVQAGGSLRLSCAASGSTFYSYAMGWYRQAPGKERELVAAISSGGSTYYADSVKGRFTISRDNAKNTGYLQMNSLKPEDTAVYYCAAKRRAKTGYRYDYWGQGTQVTVSS | high polyreactivity
QVQLVESGGGLVQAGGSLRLSCAASGSTFYSYAMGWYRQAPGKERELVAAITRGGSTYYADSVKGRFTISRDNAKNTVYLQMNSLKPEDTAVYYCAARPWTSASYDYWGQGTQVTVSS | low polyreactivity
QVQLVESGGGLVQAGGSLRLSCAASGSTFYSYAMGWYRQAPGKERELVAAITTSGVSTYYADSVKGRFTISRDNAKNTVYLQMNSLKPEDTAVYYCNAYFIYEGGWYYKAQYDYWGQGTQVTVSS | low polyreactivity
QVQLVESGGGLVQAGGSLRLSCAASGSTFYSYAMGWYRQAPGKERELVASITRGGSTNYADSVKGRFTISRDNAKNTVYLQMNSLKPEDTAVYYCITRGNARMDYWGQGTQVTVSS | high polyreactivity
QVQLVESGGGLVQAGGSLRLSCAASGSTFYSYTMGWYRQAPWKERELVATISWSGSSTYYADSVKGRFTISRDNAKNTVYLQMNSLKPEDTAVYYCAAEWDESYSYRRYRHYDYWGQGTQVTVSS | low polyreactivity

Sequence | polyreactivity (PSR sort gate)
QVQLVESGGGLVQAGGSLRLSCAASGSTFYSYVMGGYRQAPGKERELVAAISKRGTSTYYADSVKGRFTISRDNAKYTVYLQMNSLKPEDNAVYYCAARPIVGVYPDIYDYWGHGTQVTVSS | low polyreactivity
QVQLVESGGGLVQAGGSLRLSCAASGSTFYTNAMGWYRQAPGKEREFVAAISGRGSNTYYADSVKGRFTISRDNAKNTVYLQMNSLKPEDTAVYYCAADFRSEHAEDYWGQGTQVTVSS | high polyreactivity
QVQLVESGGGLVQAGGSLRLSCAASGSTFYTNAMGWYRQAPWKERELVAAISNAVSTYYADSVKGRFTISRDNAKNTVYLQMKSLKPEDTAVYYCAADPIGLSSLWFRYSVSDVDYWGQGTQVTVSS | low polyreactivity
QVQLVESGGGLVQAGGSLRLSCAASGSTFYTNPMGWYRQAPGKEREFVAAISGSGSSTYADSVKGRFTISRDNAKNTVYLQMNSLKPEDTAVYYCAADWFILRTDYYWGQGTQVTVSS | low polyreactivity
QVQLVESGGGLVQAGGSLRLSCAASGSTFYTYAMGWYRQAPGKERELVAAISGSGGRTYYADSVKGRFTISRDNAKNTVYLQMNSLKPEDTAVYYCAAYSYRKHATGSRDMDYWGQGTQVTVSS | high polyreactivity
QVQLVESGGGLVQAGGSLRLSCAASGSTFYVYAMGWYRQAPGKERELVAAINFNGGGTYYADSVKGRFTISRDNAKNTVYLQMNSLKPEDTAVYYCYYLYNYWGQGTQVTVSS | low polyreactivity
QVQLVESGGGLVQAGGSLRLSCAASGSTFYVYAMGWYRQAPGKERELVAAISKRGGTTYYADSVKGRFTISRDNAKNTVYLQMNSLKPEDTAVYYCAADVRSPSAGYQGGYWGQGTQVTVSS | high polyreactivity
QVQLVESGGGLVQAGGSLRLSCAASGSTFYVYAMGWYRQAPGKERELVAAITTGGSTYYADSVKGRFTISRDNAKNTVYLQMNSLKPEDTAVYYCAADDPDPYDVPSYDYWGQGTQVTVSS | low polyreactivity
QVQLVESGGGLVQAGGSLRLSCAASGSTFYWYAMGWYRQAPGKERELVAVITVRGGSTYYADSVKGRFTISRDNAKNTVYLQMNSLKPEDTAVYYCAAEPTSYLYKYWYDYWGEGTQVTVSS | low polyreactivity
QVQLVESGGGLVQAGGSLRLSCAASGSTFYWYAMGWYRQAPGKERELVDDITFSSGGTYYADSVKGRFTISRDNAKNTVYLQMNSLKPEVTADYYCATEYSLWYTRDWQRYEYWGQGTQVTVSS | high polyreactivity
QVQLVESGGGLVQAGGSLRLSCAASGSTFYWYTMGWYRQAPGKERELVARISSSGSTNYADSVKGRFTISRDNAKNTVYFQMNSLKPEDTAVYYCNKDWIYRGYDYWGQGTQVTVSS | high polyreactivity
QVQLVESGGGLVQAGGSLRLSCAASGSTFYWYTMGWYRQAPGKERELVATINYSGGSTYYADSVKGRFTISRDNAKNTVYLQMNSLKPEDTAVYYCNKQVYVGWGSDYWGQGTQVTVSS | low polyreactivity
QVQLVESGGGLVQAGGSLRLSCAASGSTFYYGMGWYRQAPGKERELVAAISSRGGTTYYADSVKGRFTISRDNAKNTVYLQMNSLKPEDTAVDYCAAPVPYYVPRRNEGDYWGQGTQVTVSS | low polyreactivity
QVQLVESGGGLVQAGGSLRLSCAASGSTFYYNAMGGYRQAPGKEWELVATITSAGRTNYADSVKGRFTISRVNAKNTDYLQMNSLKPEDTAVYYCNARYRLSRYNYWGQGTQVTVSS | low polyreactivity
QVQLVESGGGLVQAGGSLRLSCAASGSTFYYNAMGWYRQAPGKERELVAAISGSGGSTYYADSVKGRFTISRDNAKNTVYLQMNSLKPEDTAVYYCAALYGPGREYDYWGQGTQVTVSS | low polyreactivity
QVQLVESGGGLVQAGGSLRLSCAASGSTFYYNAMGWYRQAPGKERELVADISWRGGITYYADSVKGRFTISRDNAKNTVYLQMNSLKPEDTAVYYCNADAESFDDGYWGQGTQVTVSS | low polyreactivity
